Patent publication US10954305B2 (Immunomedics, Inc., priority 2016, dated 2021)
Like-named read-outs stand apart in the source and are kept apart here.

Columns and labels:
BxPC-3 = test: ADCC of hRS7-ADCs vs hRS7 IgG; assay type: cell-based, human; details: 33.3 nM; effector to target ratio 100:1
Experimental: The ADCC activity of various hRS7-ADC conjugates was determined in comparison to hRS7 IgG (FIG. 3). PBMCs were purified from blood purchased from the Blood Center of New Jersey. A Trop-2-positive human pancreatic adenocarcinoma cell line (BxPC-3) was used as the target cell line with an effector to target ratio of 100:1. […] All were used at 33.3 nM.

recombinant mouse Trop-2 = target: T1, recombinant mouse Trop-2 (Mus musculus, UniProt Q8BGV3); test: Trop-2 ELISA; assay type: binding
T1 construct: purchased Sino Biological, Inc. 50922-MO8H
T1 sequence (Q8BGV3 25-317): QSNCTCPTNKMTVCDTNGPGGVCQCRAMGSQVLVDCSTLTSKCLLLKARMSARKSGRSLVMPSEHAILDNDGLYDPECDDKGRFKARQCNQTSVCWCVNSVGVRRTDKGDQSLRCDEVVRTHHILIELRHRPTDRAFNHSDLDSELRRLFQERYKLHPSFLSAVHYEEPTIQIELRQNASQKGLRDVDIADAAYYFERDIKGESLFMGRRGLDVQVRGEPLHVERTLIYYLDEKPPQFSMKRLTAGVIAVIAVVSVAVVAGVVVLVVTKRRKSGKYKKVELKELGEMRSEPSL
Experimental: (§1) Recombinant human Trop-2 with a His-tag (Sino Biological, Inc., Bejing, China; Cat #10428-H09H) and recombinant mouse Trop-2 with a His-Tag (Sino Biological, Inc., Cat #50922-MO8H) were plated onto Ni-NTA Hissorb strips (Qiagen GmbH Cat #35023) at 1 μg for 1 h at room temperature. The plate was washed four times with PBS-Tween (0.05%) wash buffer. Serial dilutions of hRS7 were made in 1% BSA-PBS dilution buffer to a test range of 0.1 ng/mL to 10 μg/mL. The plates were then incubated for 2 h at room temperature before being washed four times followed by the addition of a peroxidase conjugated secondary antibody (goat anti-human, Fc fragment specific; Jackson Immunoresearch Cat #109-036-098). After a 45-min incubation, the plate was washed and a substrate solution (o-phenylenediamine dihydrochloride (OPD); Sigma, Cat #P828) added to all the wells. Plates were incubated in the dark for 15 min before the reaction was stopped with 4N sulfuric acid. The plates were read at 450 nm on Biotek ELX808 plate reader. Data were analyzed and graphed using Prism GraphPad Software (v4.03) (Advanced Graphics Software, Inc.; Encinitas, Calif.).

recombinant human Trop-2 = target: T2, recombinant human Trop-2 (Homo sapiens, UniProt P09758); test: Trop-2 ELISA; assay type: binding
T2 construct: purchased Sino Biological, Inc. 10428-H09H
T2 sequence (P09758 27-323): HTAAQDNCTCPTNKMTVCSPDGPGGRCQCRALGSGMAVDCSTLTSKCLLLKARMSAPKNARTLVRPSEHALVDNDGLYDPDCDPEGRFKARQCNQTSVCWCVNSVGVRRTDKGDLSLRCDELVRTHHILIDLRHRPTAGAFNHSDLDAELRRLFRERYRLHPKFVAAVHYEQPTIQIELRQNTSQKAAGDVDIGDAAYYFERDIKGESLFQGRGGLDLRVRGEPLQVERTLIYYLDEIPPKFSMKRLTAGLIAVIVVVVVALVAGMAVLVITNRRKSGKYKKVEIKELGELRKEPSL
Experimental: as §1

[1] = system: triple-negative breast cancer; test: Phase I/II clinical trial of IMMU-132, TNBC; assay type: in vivo, human
Text: […] […] Previous treatments included cyclophosphamide, doxorubicin, carboplatin, gemcitabine, capecitabine, eribulin, cisplatinum, anastrozole, vinorelbine, bevacizumab and tamoxifen. […] The median time to progression in this heavily pretreated population of TNBC patients was 9.4 months, with a range of 2.9 to 14.2 months to date. However, 72% of patients in the study were still ongoing treatment.

[2] = Phase I/II clinical trial of IMMU-132, pharmacokinetics; details: for serum hRS7 IgG, Max / serum hRS7 IgG, Min / serum intact ADC, Max / serum intact ADC, Min / serum hRS7 IgG, Mean / serum intact ADC, Mean: 0.5 h after first dose
Experimental: SN-38 was measured by HPLC.
Blood samples were taken within ˜30 min from the end of the infusion (e.g., peak) and then prior to each subsequent injection (e.g., trough). […] Serum samples from seven patients also were assayed for SN-38 content, both total (representing SN-38 bound to the IgG and free) and free SN-38 (i.e., unbound SN-38).

[3] = system: Capan-1 human pancreatic cancer xenografts; details: 1 and 6 h
Experimental: SN-38 accumulation was determined in nude mice bearing Capan-1 human pancreatic cancer xenografts (−0.06-0.27 g). […] This dose is MTD in mice. […] This dose is well below the MTD in mice.
At 5 different intervals, 3 animals per group were euthanized. […] Serum and tissue homogenates were extracted and analyzed by reversed-phase HPLC (RP-HPLC).

[4] = system: triple-negative breast cancer; details: 58 evaluable mTNBC patients, RECIST1.1 (Bardia et al.); cited from earlier work

Substance: hRS7 IgG
- specific lysis (ADCC) (BxPC-3): 8.5%
- cross-reactivity (recombinant mouse Trop-2): no cross-reactivity with the murine Trop-2
- Kd (recombinant human Trop-2): 300 pM

Substance: IMMU-132
- confirmed complete responses (CR) ([1]; 10 mg/kg): 2
- partial responses (PR) ([1]; 10 mg/kg): 13
- time to progression, range ([1]; 10 mg/kg): 2.9 to 14.2 months
- clinical benefit rate (PR+SD>6 months) ([1]; 17 TNBC patients): 46%
- PD ([1]; of 8 assessable patients): 2
- PR ([1]; of 8 assessable patients): 2
- serum hRS7 IgG, Max ([2]; 8 mg/kg): 249.0 µg/mL
- serum hRS7 IgG, Min ([2]; 8 mg/kg): 96.0 µg/mL
- serum intact ADC, Max ([2]; 8 mg/kg): 169.3 µg/mL
- serum intact ADC, Min ([2]; 8 mg/kg): 95.0 µg/mL
- serum hRS7 IgG, Mean ([2]; 8 mg/kg, N 7): 193.1 µg/mL
- serum intact ADC, Mean ([2]; 8 mg/kg, N 7): 141.5 µg/mL
- serum hRS7 IgG, Max ([2]; 10 mg/kg): 285.85 µg/mL
- serum hRS7 IgG, Min ([2]; 10 mg/kg): 152.00 µg/mL
- serum intact ADC, Max ([2]; 10 mg/kg): 237.39 µg/mL
- serum intact ADC, Min ([2]; 10 mg/kg): 144.00 µg/mL
- serum hRS7 IgG, Mean ([2]; 10 mg/kg, N 5): 203.35 µg/mL
- serum intact ADC, Mean ([2]; 10 mg/kg, N 5): 185.77 µg/mL
- serum hRS7 IgG, Max ([2]; 12 mg/kg): 400.0 µg/mL
- serum hRS7 IgG, Min ([2]; 12 mg/kg): 168.9 µg/mL
- serum intact ADC, Max ([2]; 12 mg/kg): 311.0 µg/mL
- serum intact ADC, Min ([2]; 12 mg/kg): 98.0 µg/mL
- serum hRS7 IgG, Mean ([2]; 12 mg/kg, N 9): 239.2 µg/mL
- serum intact ADC, Mean ([2]; 12 mg/kg, N 9): 183.3 µg/mL
- serum hRS7 IgG, Max ([2]; 18 mg/kg): 499.00 µg/mL
- serum hRS7 IgG, Min ([2]; 18 mg/kg): 321.48 µg/mL
- serum intact ADC, Max ([2]; 18 mg/kg): 423.00 µg/mL
- serum intact ADC, Min ([2]; 18 mg/kg): 162.80 µg/mL
- serum hRS7 IgG, Mean ([2]; 18 mg/kg, N 3): 409.16 µg/mL
- serum intact ADC, Mean ([2]; 18 mg/kg, N 3): 258.27 µg/mL
- SN-38 in serum bound to IgG, peak samples ([2]; 30 min after end of infusion): > 96%
- SN-38 in serum bound to IgG ([2]; HPLC): > 95%
- clearance of conjugate from serum ([2]; human, in vivo): ≤ 3 days
- SN-38 bound to IgG, peak sample ([2]; one patient, 12 mg/kg): 4000 ng/mL
- free SN-38, 30-min serum ([2]; patient 15): 88 to 102 ng/mL
- free SN-38 as share of total SN-38 ([2]; patient 15): 2.4% to 3.6%
- total SN-38, 30-min serum ([2]; patient 15, 6th cycle, 6.0 mg/kg): 2,381 ng/mL
- total SN-38, 30-min serum ([2]; patient 15, C1D1, 12 mg/kg): 3,930 ng/mL
- total SN-38, 30-min serum ([2]; patient 15, C1D2, 9.0 mg/kg): 2,947 ng/mL
- SN-38G share of total SN-38+SN-38G ([2]; patient #25, 13.5 mg/kg): 11.6%
- total SN-38 (acid-hydrolyzed), average ([2]; patient #25, 13.5 mg/kg, 11 peak samples): 3309.8 ± 601.8 ng/mL
- SN-38G share of total unbound SN-38+SN-38G ([2]; patient #25, 18 mg/kg): 14.4%
- free SN-38 (non-hydrolyzed) ([2]; patient #25, 18 mg/kg): 155.2 ng/mL
- total SN-38 (acid-hydrolyzed) ([2]; patient #25, 18 mg/kg): 5,089 ng/mL
- intact conjugate in trough samples ([2]; serum drawn immediately before next dose): no sacituzumab govitecan could be detected
- free SN-38G lower than free SN-38 in serum [3]: 3- to 7 times
- PD (small cell lung cancer; of 4 assessable patients): 2
- PR (small cell lung cancer; of 4 assessable patients): 2
- PR (small cell lung cancer; out of 25 assessable patients, 8 or 10 mg/kg): 6
- interim objective response rate [4]: 31%
